Among the data in PMC8692352 (2023) are Kd values, retold here.

T1: plasminogen (Homo sapiens, UniProt P00747)
T1 chain: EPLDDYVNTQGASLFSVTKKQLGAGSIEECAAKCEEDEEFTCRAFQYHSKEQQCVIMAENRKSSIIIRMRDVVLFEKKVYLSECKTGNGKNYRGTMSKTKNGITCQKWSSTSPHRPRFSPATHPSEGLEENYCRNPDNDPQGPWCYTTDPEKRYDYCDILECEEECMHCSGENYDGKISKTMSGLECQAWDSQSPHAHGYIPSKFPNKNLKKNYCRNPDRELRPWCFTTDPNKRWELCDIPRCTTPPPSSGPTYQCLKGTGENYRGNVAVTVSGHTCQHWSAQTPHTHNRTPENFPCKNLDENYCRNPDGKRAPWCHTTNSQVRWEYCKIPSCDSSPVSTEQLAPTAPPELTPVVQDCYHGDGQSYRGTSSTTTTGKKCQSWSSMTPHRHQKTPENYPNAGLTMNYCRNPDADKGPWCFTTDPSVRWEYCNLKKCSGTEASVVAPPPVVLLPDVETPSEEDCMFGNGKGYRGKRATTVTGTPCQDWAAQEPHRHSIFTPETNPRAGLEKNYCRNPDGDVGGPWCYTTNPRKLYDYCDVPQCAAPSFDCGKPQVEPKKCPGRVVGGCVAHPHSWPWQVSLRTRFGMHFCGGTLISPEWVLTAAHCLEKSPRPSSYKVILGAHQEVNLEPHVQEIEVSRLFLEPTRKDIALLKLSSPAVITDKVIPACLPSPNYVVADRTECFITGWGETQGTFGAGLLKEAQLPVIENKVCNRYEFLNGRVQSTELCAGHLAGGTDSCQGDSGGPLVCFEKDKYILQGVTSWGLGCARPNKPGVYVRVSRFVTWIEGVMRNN

B1: α-globin chain (protein)
chain: not shown
B2: hemoglobin A (protein)
chain 1: not shown
chain 2: not shown
B3: tPA (protein)
chain: SYQVICRDEKTQMIYQQHQSWLRPVLRSNRVEYCWCNSGRAQCHSVPVKSCSEPRCFNGGTCQQALYFSDFVCQCPEGFAGKCCEIDTRATCYEDQGISYRGTWSTAESGAECTNWNSSALAQKPYSGRRPDAIRLGLGNHNYCRNPDRDSKPWCYVFKAGKYSSEFCSTPACSEGNSDCYFGNGSAYRGTHSLTESGASCLPWNSMILIGKVYTAQNPSAQALGLGKHNYCRNPDGDAKPWCHVLKNRRLTWEYCDVPSCSTCGLRQYSQPQFRIKGGLFADIASHPWQAAIFAKHRRSPGERFLCGGILISSCWILSAAHCFQERFPPHHLTVILGRTYRVVPGEEEQKFEVEKYIVHKEFDDDTYDNDIALLQLKSDSSRCAQESSVVRTVCLPPADLQLPDWTECELSGYGKHEALSPFYSERLKEAHVRLYPSSRCTSQHLLNRTVTDNMLCAGDTRSGGPQANLHDACQGDSGGPLVCLNDGRMTLVGIISWGLGCGQKDVPGVYTKVTNYLDWIRDNMRP
B4: β-globin chain (protein)
chain: not shown

In the assay the target is T1, plasminogen. As to the kind of experiment: SPR. A general note: In SPR one partner is held on a chip, and binding of the other changes the refractive index at the surface.
With B1, the Kd worked out at 93 nM.

In turn, B2 returned an equilibrium dissociation constant (Kd) of 3600 nM.

In the case of B3, the Kd stood at 48 nM.

Regarding B4, the affinity, expressed as Kd, was 4000 nM.

For orientation: Kd means a measure of binding affinity in units of concentration. Low values mean higher affinity, high ones lower affinity.
